For three molecules, Kd, koff and kon results are on record in US20140357844A1 (RINAT NEUROSCIENCE, published 2014).

Residue numbers refer to the chain shown, from its start.

One may read the Kd as the free concentration of one partner at which half of the binding sites on the other are occupied at equilibrium, for simple one-to-one binding. A higher Kd goes with lower affinity. One may read the koff as a measure of how fast the partners let go of each other. What is called kon is the rate constant with which the complex forms. Low values mean slower complex formation, high ones faster complex formation.

Assay [1] deals with T1, Human Trop-2-mFc protein (human, UniProt P09758 27-274).
T1 construct: also called huTrop-2; not shown: mouse Fc
T1 sequence: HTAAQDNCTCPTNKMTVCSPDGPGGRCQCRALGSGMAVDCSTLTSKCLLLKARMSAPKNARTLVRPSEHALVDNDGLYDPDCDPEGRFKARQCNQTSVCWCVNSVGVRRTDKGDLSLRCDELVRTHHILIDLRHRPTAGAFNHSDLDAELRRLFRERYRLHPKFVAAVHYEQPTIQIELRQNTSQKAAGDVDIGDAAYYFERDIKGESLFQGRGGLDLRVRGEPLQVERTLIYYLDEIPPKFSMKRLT
Description: SPR (Biacore 2000), human Trop-2-mFc captured by anti-mouse Fc, Fab as analyte. Background: Surface plasmon resonance follows binding to a sensor surface in real time, without labels.

For assay [2], the target named is T2, Monomeric Trop-2 extracellular domain prepared from papain digestion of Trop-2-Fc fusion protein (human, UniProt P09758 27-274).
T2 construct: also called huTrop-2
T2 sequence: T1 sequence
Description: SPR (Biacore), mouse IgG captured by anti-mouse IgG, monomeric Trop-2 ECD as analyte.
Description: The affinities of anti-Trop-2 mouse antibodies generated from hybridomas were measured on a surface plasmon resonance Biacore™ 2000 or 3000 biosensor equipped with a research-grade CM5 sensor chip (Biacore™ AB, Uppsala, Sweden—now GE Healthcare). Anti-mouse IgG was first amine coupled to the CM5 sensor surface. Various anti-Trop-2 mouse IgGs were then captured by anti-mouse IgG. Monomeric Trop-2 extracellular domain prepared from papain digestion of Trop-2-Fc fusion protein was then injected as the analyte at 3 fold dilution series.

B1: Human 6G11 WT Fab fragment (Fab, V domains shown)
VH: QVQLVQSGAEVKKPGASVKVSCKASGYTFTSYWINWVRQAPGQGLEWMGNIYPSDSYSNYNQKFKDRVTMTRDTSTSTVYMELSSLRSEDTAVYYCARGSSFDYWGQGTLVTVSS
VL: EIVLTQSPATLSLSPGERATLSCRASQTIGTSIHWYQQKPGQAPRLLIYYASESISGIPARFSGSGSGTDFTLTISSLEPEDFAVYYCQQSNSWPFTFGQGTKLEIK
notes: Fab; also called h6G11_WT; h6G11
In assay [1], B1 registered a Kd of 27 nM, a koff of 0.0096 s⁻¹ and a kon of 360000 M⁻¹ s⁻¹.

B2: Human 6G11_FKG_SF Fab fragment (Fab, V domains shown)
VH: B1 VH with Y52F, Q62K, S101G
VL: B1 VL with Q89S, N92F
notes: Fab
B2: in assay [1], the Kd is 0.6 nM, the koff was determined as 0.00038 s⁻¹ and the kon was 640000 M⁻¹ s⁻¹.

B3: anti-Trop-2 mouse antibody 6G11 (antibody, mouse IgG2a, V domains shown)
VH: QVQLQQPGAELVRPGASVKLSCKASGYTFTSYWINWVKQRPGHGLEWIGNIYPSDSYSNYNQKFKDKATLTVDKSSSTAYMQVSSPTSEDSAVYYCTYGSSFDYWGQGTTVTVSS
VL: DILLTQSPAILSVSPGERVSFSCRASQTIGTSIHWYQQRTNGSPRLLIKYASESISGIPSRFSGSGSGTDFTLSINSVESEDIADYYCQQSNSWPFTFGSGTKLEIK
notes: also called m6G11
B3: in assay [2], the Kd amounted to 31.8 nM, the koff amounted to 0.0086 s⁻¹ and the kon worked out at 270000 M⁻¹ s⁻¹.
